T1: human FcγRIIa type H extracellular domain with C-terminal His tag (human, UniProt P12318 34-217)
T1 construct: extracellular domain; also called FcgRIIaH; FcγRIIa H
T1 sequence (looked up): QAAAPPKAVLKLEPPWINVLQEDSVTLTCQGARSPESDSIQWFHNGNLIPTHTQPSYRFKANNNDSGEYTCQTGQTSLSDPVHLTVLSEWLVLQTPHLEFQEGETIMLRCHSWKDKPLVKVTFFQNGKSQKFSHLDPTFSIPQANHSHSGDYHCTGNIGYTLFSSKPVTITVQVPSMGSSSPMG

T2: human FcγRIIb extracellular domain with C-terminal His tag (human, UniProt P31994 43-217)
T2 construct: extracellular domain; For crystals it was expressed with kifunensine and trimmed with Endo F1; also called FcgRIIb; FcγRIIb extracellular region
T2 sequence (looked up): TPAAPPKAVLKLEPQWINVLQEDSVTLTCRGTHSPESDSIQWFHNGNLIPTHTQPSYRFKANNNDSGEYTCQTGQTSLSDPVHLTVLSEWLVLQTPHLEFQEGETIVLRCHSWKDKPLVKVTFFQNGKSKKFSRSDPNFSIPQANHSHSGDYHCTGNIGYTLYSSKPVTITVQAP

B1: IL6R-BP130/IL6R-L (antibody, human IgG1, kappa, name in EU numbering)
heavy: QVQLQESGPGLVKPSETLSLTCAVSGHSISHDHAWSWVRQPPGEGLEWIGFISYSGITNYNPSLQGRVTISRDNSKNTLYLQMNSLRAEDTAVYYCARSLARTTAMDYWGEGTLVTVSSASTKGPSVFPLAPSSKSTSGGTAALGCLVKDYFPEPVTVSWNSGALTSGVHTFPAVLQSSGLYSLSSVVTVPSSSLGTQTYICNVNHKPSNTKVDKKVEPKSCDKTHTCPPCPAPDLLGGDSVFLFPPKPKDTLMISRTPEVTCVVVDVSHEDPEVKFNWYVDGVEVHNAKTKPREEQYNSTYRVVSVLTVLHQDWLNGKEYKCKMSNKALPKPIEKTISKAKGQPREPQVYTLPPSRDELTKNQVSLTCLVKGFYPSDIAVEWESNGQPENNYKTTPPVLDSDGSFFLYSKLTVDKSRWQQGNVFSCSVMHEALHNHYTQESLSLSP
light: not shown
B2: IL6R-BP146/IL6R-L (antibody, human IgG1, kappa, name in EU numbering)
heavy: QVQLQESGPGLVKPSETLSLTCAVSGHSISHDHAWSWVRQPPGEGLEWIGFISYSGITNYNPSLQGRVTISRDNSKNTLYLQMNSLRAEDTAVYYCARSLARTTAMDYWGEGTLVTVSSASTKGPSVFPLAPSSKSTSGGTAALGCLVKDYFPEPVTVSWNSGALTSGVHTFPAVLQSSGLYSLSSVVTVPSSSLGTQTYICNVNHKPSNTKVDKKVEPKSCDKTHTCPPCPAPEYLGDDSVFLFPPKPKDTLMISRTPEVTCVVVDVSHEDPEVKFNWYVDGVEVHNAKTKPREEQYNSTYRVVSVLTVLHQDWLNGKEYKCKVSNAALPAPIEKTISKAKGQPREPQVYTLPPSRDELTKNQVSLTCLVKGFYPSDIAVEWESNGQPENNYKTTPPVLDSDGSFFLYSKLTVDKSRWQQGNVFSCSVMHEALHNHYTQESLSLSP
light: not shown
B3: IL6R-BP178/IL6R-L (antibody, human IgG1, kappa, name in EU numbering)
heavy: QVQLQESGPGLVKPSETLSLTCAVSGHSISHDHAWSWVRQPPGEGLEWIGFISYSGITNYNPSLQGRVTISRDNSKNTLYLQMNSLRAEDTAVYYCARSLARTTAMDYWGEGTLVTVSSASTKGPSVFPLAPSSKSTSGGTAALGCLVKDYFPEPVTVSWNSGALTSGVHTFPAVLQSSGLYSLSSVVTVPSSSLGTQTYICNVNHKPSNTKVDKKVEPKSCDKTHTCPPCPAPDLLGDDSVFLFPPKPKDTLMISRTPEVTCVVVDVSHEDGEVKFNWYVDGVEVHNAKTKPREEQYNSTYRVVSVLTVLHQDWLNGKEYKCKVSNKALPKPIEKTISKAKGQPREPQVYTLPPSRDELTKNQVSLTCLVKGFYPSDIAVEWESNGQPENNYKTTPPVLDSDGSFFLYSKLTVDKSRWQQGNVFSCSVMHEALHNHYTQESLSLSP
light: not shown
B4: IL6R-BP188/IL6R-L (antibody, human IgG1, kappa, name in EU numbering)
heavy: QVQLQESGPGLVKPSETLSLTCAVSGHSISHDHAWSWVRQPPGEGLEWIGFISYSGITNYNPSLQGRVTISRDNSKNTLYLQMNSLRAEDTAVYYCARSLARTTAMDYWGEGTLVTVSSASTKGPSVFPLAPSSKSTSGGTAALGCLVKDYFPEPVTVSWNSGALTSGVHTFPAVLQSSGLYSLSSVVTVPSSSLGTQTYICNVNHKPSNTKVDKKVEPKSCDKTHTCPPCPAPDLLGDDSVFLFPPKPKDTLMISRTPEVTCVVVDVSDEDGEVKFNWYVDGVEVHNAKTKPREEQYNSTYRVVSVLTVLHQDWLNGKEYKCKVSNKALPKPIEKTISKAKGQPREPQVYTLPPSRDELTKNQVSLTCLVKGFYPSDIAVEWESNGQPENNYKTTPPVLDSDGSFFLYSKLTVDKSRWQQGNVFSCSVMHEALHNHYTQESLSLSP
light: not shown

What was measured:
Assay in all cases: SPR; IL6R-BF648/IL6R-L=100
[1] = molecular target: T3, human FcγRIa extracellular domain with C-terminal His tag (human, UniProt P12314 16-292)
T3 construct: Whole entry named; also called FcgRIa; FcgIa
T3 sequence (P12314 16-292): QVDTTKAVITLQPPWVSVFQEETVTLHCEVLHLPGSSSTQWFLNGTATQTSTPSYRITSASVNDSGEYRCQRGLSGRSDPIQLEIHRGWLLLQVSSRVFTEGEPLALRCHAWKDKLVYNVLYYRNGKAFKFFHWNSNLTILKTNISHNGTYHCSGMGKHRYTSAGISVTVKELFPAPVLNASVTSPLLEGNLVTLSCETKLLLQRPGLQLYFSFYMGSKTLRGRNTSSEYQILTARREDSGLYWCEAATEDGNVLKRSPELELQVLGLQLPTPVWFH
Experimental: (§1) IL6R-L was utilized as the common antibody L chain for all of the antibodies, the antibodies were expressed and purified according to the method of Reference Example 1, and binding to each of the FcγRs (FcγRIa, FcγRIIa type H, FcγRIIa type R, FcγRIIb, and FcγRIIIa type V) was comprehensively evaluated by the method of Reference Example 2.
(§2) Relative binding activities were calculated for the results of analyzing interactions with the respective FcγRs according to the following method.

[2] = molecular target: T1, human FcγRIIa type H extracellular …
Experimental: as §1, §2

[3] = molecular target: T2, human FcγRIIb extracellular domain with …
Experimental: as §1, §2

Row | Binder | relative binding activity [1] | relative binding activity [2] | relative binding activity [3]
1 | B1 | 104 | 224 | 
2 | B2 |  | 203 | 156
3 | B3 |  | 259 | 179
4 | B4 | 74 |  | 179

From patent US20150299296A1 (Chugai, published 2015)
